Data: US20050169919A1 (published 2005)
One block for each molecule: values may come before it.

B1: CTLA4/CD28Ig hybrid fusion protein HS6 (Fc fusion, human)
chain: AMHVAQPAVVLASSRGIASFVCEYSYNLFSREVRVTVLRQADSQVTEVCAATYMMGNELTFLDDSICTGTSSGNQVNLTIQGLRAMDTGLYICKVELMYPPPYYLGIGNGTQIYVIDPEPCPD
notes: range 25-32; not shown: hinge and constant regions of human IgG1, hinge cysteines mutated; junction printed DQE
B2: CTLA4/CD28Ig hybrid fusion protein HS2 (Fc fusion, human)
chain: AMHVAQPAVVLASSRGIASFVCKYSYNLFSREFRASLHKGLDSAVEVCVVYGNYSQQLQVYSKTGFNCDGKLGNESVTFYLQNLYVNQTDIYFCKIELMYPPPYYLGIGNGTQIYVIDPEPCPD
notes: range 23-96; not shown: hinge and constant regions of human IgG1, hinge cysteines mutated; junction printed DQE
B3: B7 antigen (B7-1) stably expressed on CHO cells (ligand, human, UniProt P33681 35-288, looked up)
chain: VIHVTKEVKEVATLSCGHNVSVEELAQTRIYWQKEKKMVLTMMSGDMNIWPEYKNRTIFDITNNLSIVILALRPSDEGTYECVVLKYEKDAFKREHLAEVTLSVKADFPTPSISDFEIPTSNIRRIICSTSGGFPEPHLSWLENGEELNAINTTVSQDPETELYAVSSKLDFNMTTNHSFMCLIKYGHLRVNQTFNWNTTKQEHFPDNLLPSWAITLISVNGIFVICCLTYCFAPRCRERRRNERLRRESVRPV
notes: whole, on cells; also called B7/BB-1; CD80

Key:
[1] = molecular target: B7 antigen on lymphoblastoid cell line (PM LCL) (human) (UniProt P33681); experiment: cell-based or functional assay
[2] = molecular target: B7Ig fusion protein (human) (UniProt P33681); experiment: solid phase competition for binding of 125I-B7Ig (4 nM) to immobilized CTLA4Ig
[3] = molecular target: B3; experiment: indirect cell binding enzyme immunoassay on ethanol-fixed B7-1+ CHO cells
Protocol: Round bottom tissue culture treated 96 well microtiter plates (Corning, Corning, N.Y.) were seeded with B7-1 positive CHO cells at 10³ cells/well.

CTLA4Ig fusion protein = molecular target: T1, CTLA4Ig fusion protein (human, UniProt P01857-1 99-330 = IgG part); experiment: immunoprecipitation from 125I surface-labeled B7+ CHO extract, SDS-PAGE
T1 construct: domain: hinge, CH2 and CH3 regions; also called wild-type CTLA4Ig; human CTLA4Ig
Protocol: Immunoprecipitation Analysis and SDS PAGE. Cells were surface-labeled with ¹²⁵I and subjected to immunoprecipitation analysis. […] SDS-PAGE chromatography was performed on linear acrylamide gradients gels with stacking gels of 5% acrylamide. Gels were stained with Coomassie Blue, destained, and photographed or dried and exposed to X ray film (Kodak XAR-5).
B7⁺ CHO and PM LCL cells were surface-labeled with ¹²⁵I, and extracted with a non-ionic detergent solution as described above. […] Washed immunoprecipitates were then analyzed by SDS-PAGE (10-20% acrylamide gradient) under reducing conditions. The gel was then dried and subjected to autoradiography.

inhibition of Th-induced IgM production by allogeneic CD19+ B cells (ELISA) [1]: 65%
IC50 [2]: 22 nM
Molecule: murine monoclonal antibody BB-1 (anti-B7 antigen)

Molecule: B1
binding result [3]: binds

Molecule: B2
binding result [3]: binds

Molecule: B3
binding result (CTLA4Ig fusion protein): binds
